Reference: article doi:10.1101/2020.10.08.332312 (bioRxiv, 2020)

Biological target: T1, Trs31 (subunit of the recombinant TRAPPIII complex) (S. cerevisiae, UniProt Q03337 1-283)
T1 sequence: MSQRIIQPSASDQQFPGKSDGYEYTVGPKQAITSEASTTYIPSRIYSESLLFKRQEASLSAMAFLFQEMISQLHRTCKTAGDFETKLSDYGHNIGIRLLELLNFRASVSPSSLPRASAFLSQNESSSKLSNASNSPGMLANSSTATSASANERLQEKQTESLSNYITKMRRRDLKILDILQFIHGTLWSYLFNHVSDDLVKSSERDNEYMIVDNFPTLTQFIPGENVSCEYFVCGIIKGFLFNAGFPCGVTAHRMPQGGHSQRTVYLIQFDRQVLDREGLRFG
Test: cryo-EM structure

binding result: binds
B1: Ypt1-7xHis (yeast Rab1/Ypt1 with the two C-terminal cysteines replaced by an affinity tag) (natural protein)
chain: not shown
